Reference: patent US20180009871A1 (INTARCIA THERAPEUTICS, published 2018)
Where no end group is shown, it is not given here. [ ]: non-standard residue; d: D form. Aib = CC(C)(N)C(=O)O

Experiments:
[1] = target: human GLP-1 receptor (GLP-1R) (human, UniProt P43220 24-463); experiment: cell-based or functional assay
[2] = target: human glucagon receptor (GCGR) (human, UniProt P47871 26-477); experiment: cell-based or functional assay

Sequence of human GLP-1 receptor (GLP-1R) (P43220 24-463): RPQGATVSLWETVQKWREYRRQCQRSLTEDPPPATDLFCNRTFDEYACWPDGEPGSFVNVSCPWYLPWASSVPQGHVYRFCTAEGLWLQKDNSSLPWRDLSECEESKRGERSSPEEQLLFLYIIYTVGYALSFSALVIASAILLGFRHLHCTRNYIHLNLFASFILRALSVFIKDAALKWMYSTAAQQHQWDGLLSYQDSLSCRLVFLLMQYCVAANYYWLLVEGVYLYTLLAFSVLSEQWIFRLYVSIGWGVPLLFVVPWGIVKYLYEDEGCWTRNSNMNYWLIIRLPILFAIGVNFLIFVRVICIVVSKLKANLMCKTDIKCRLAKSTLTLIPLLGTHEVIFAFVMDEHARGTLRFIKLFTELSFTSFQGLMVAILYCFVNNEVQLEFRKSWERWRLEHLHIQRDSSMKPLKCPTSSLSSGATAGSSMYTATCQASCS

Binder: YTHGTFTSDYSKWLDSARAQEFVKWLEDEPSSGAPPPS-OH [Compound A39]
- hGLP1 pEC50 (cAMP) [1]: < 9 pEC50
- hGCGR pEC50 (cAMP) [2]: 9.4 pEC50

B1: Compound A46 (peptide)
peptide: YSHGTFTSDYSKYLD[Aib]KRAQEFV[Aib]WLEDEKRNKPPIA-OH
modifications: N-terminus assumed
SMILES: CC[C@H](C)[C@H](NC(=O)[C@@H]1CCCN1C(=O)[C@@H]1CCCN1C(=O)[C@H](CCCCN)NC(=O)[C@H](CC(N)=O)NC(=O)[C@H](CCCNC(=N)N)NC(=O)[C@H](CCCCN)NC(=O)[C@H](CCC(=O)O)NC(=O)[C@H](CC(=O)O)NC(=O)[C@H](CCC(=O)O)NC(=O)[C@H](CC(C)C)NC(=O)[C@H](Cc1c[nH]c2ccccc12)NC(=O)C(C)(C)NC(=O)[C@@H](NC(=O)[C@H](Cc1ccccc1)NC(=O)[C@H](CCC(=O)O)NC(=O)[C@H](CCC(N)=O)NC(=O)[C@H](C)NC(=O)[C@H](CCCNC(=N)N)NC(=O)[C@H](CCCCN)NC(=O)C(C)(C)NC(=O)[C@H](CC(=O)O)NC(=O)[C@H](CC(C)C)NC(=O)[C@H](Cc1ccc(O)cc1)NC(=O)[C@H](CCCCN)NC(=O)[C@H](CO)NC(=O)[C@H](Cc1ccc(O)cc1)NC(=O)[C@H](CC(=O)O)NC(=O)[C@H](CO)NC(=O)[C@@H](NC(=O)[C@H](Cc1ccccc1)NC(=O)[C@@H](NC(=O)CNC(=O)[C@H](Cc1c[nH]cn1)NC(=O)[C@H](CO)NC(=O)[C@@H](N)Cc1ccc(O)cc1)[C@@H](C)O)[C@@H](C)O)C(C)C)C(=O)N[C@@H](C)C(=O)O
- hGLP1 pEC50 (cAMP) [1]: < 9 pEC50
- hGCGR pEC50 (cAMP) [2]: 12.5 pEC50

Binder: YSHGTFTSDYSKYLDSARAQEFVKWLEDEPSSGAPPPS-OH [Compound A37]
- hGLP1 pEC50 (cAMP) [1]: < 9 pEC50
- hGCGR pEC50 (cAMP) [2]: 13 pEC50

Binder: YTHGTFTSDHSKWLDEARAQEFVKWLEDEPSSGAPPPS-OH [Compound A41]
- hGLP1 pEC50 (cAMP) [1]: < 9 pEC50
- hGCGR pEC50 (cAMP) [2]: 9.2 pEC50

Binder: YTHGTFTSDYSKWLDSKRAQEFVKWLEDEPSSGAPPPS-OH [Compound A42]
- hGLP1 pEC50 (cAMP) [1]: < 9 pEC50
- hGCGR pEC50 (cAMP) [2]: 9.4 pEC50

Binder: YSHGTFTSDYSKYLDKARAQEFVKWLEDEPSSGAPPPS-OH [Compound A43]
- hGLP1 pEC50 (cAMP) [1]: < 9 pEC50
- hGCGR pEC50 (cAMP) [2]: 11.8 pEC50

B2: Compound A49 (peptide)
peptide: YSHGTFTSDYSKYLD[Aib]KRAQEFV[Aib]WLEDEPRNKNNPPS-OH
modifications: N-terminus assumed
SMILES: CC(C)C[C@H](NC(=O)[C@H](Cc1ccc(O)cc1)NC(=O)[C@H](CCCCN)NC(=O)[C@H](CO)NC(=O)[C@H](Cc1ccc(O)cc1)NC(=O)[C@H](CC(=O)O)NC(=O)[C@H](CO)NC(=O)[C@@H](NC(=O)[C@H](Cc1ccccc1)NC(=O)[C@@H](NC(=O)CNC(=O)[C@H](Cc1c[nH]cn1)NC(=O)[C@H](CO)NC(=O)[C@@H](N)Cc1ccc(O)cc1)[C@@H](C)O)[C@@H](C)O)C(=O)N[C@@H](CC(=O)O)C(=O)NC(C)(C)C(=O)N[C@@H](CCCCN)C(=O)N[C@@H](CCCNC(=N)N)C(=O)N[C@@H](C)C(=O)N[C@@H](CCC(N)=O)C(=O)N[C@@H](CCC(=O)O)C(=O)N[C@@H](Cc1ccccc1)C(=O)N[C@H](C(=O)NC(C)(C)C(=O)N[C@@H](Cc1c[nH]c2ccccc12)C(=O)N[C@@H](CC(C)C)C(=O)N[C@@H](CCC(=O)O)C(=O)N[C@@H](CC(=O)O)C(=O)N[C@@H](CCC(=O)O)C(=O)N1CCC[C@H]1C(=O)N[C@@H](CCCNC(=N)N)C(=O)N[C@@H](CC(N)=O)C(=O)N[C@@H](CCCCN)C(=O)N[C@@H](CC(N)=O)C(=O)N[C@@H](CC(N)=O)C(=O)N1CCC[C@H]1C(=O)N1CCC[C@H]1C(=O)N[C@@H](CO)C(=O)O)C(C)C
- hGLP1 pEC50 (cAMP) [1]: < 9 pEC50
- hGCGR pEC50 (cAMP) [2]: 12.4 pEC50

B3: Compound A36 (peptide)
peptide: YSHGTFTSDHSKWLD[Aib]ARAQEFV[Aib]WLEDEPSSGAPPPS-OH
modifications: N-terminus assumed
SMILES: CC(C)C[C@H](NC(=O)[C@H](Cc1c[nH]c2ccccc12)NC(=O)[C@H](CCCCN)NC(=O)[C@H](CO)NC(=O)[C@H](Cc1c[nH]cn1)NC(=O)[C@H](CC(=O)O)NC(=O)[C@H](CO)NC(=O)[C@@H](NC(=O)[C@H](Cc1ccccc1)NC(=O)[C@@H](NC(=O)CNC(=O)[C@H](Cc1c[nH]cn1)NC(=O)[C@H](CO)NC(=O)[C@@H](N)Cc1ccc(O)cc1)[C@@H](C)O)[C@@H](C)O)C(=O)N[C@@H](CC(=O)O)C(=O)NC(C)(C)C(=O)N[C@@H](C)C(=O)N[C@@H](CCCNC(=N)N)C(=O)N[C@@H](C)C(=O)N[C@@H](CCC(N)=O)C(=O)N[C@@H](CCC(=O)O)C(=O)N[C@@H](Cc1ccccc1)C(=O)N[C@H](C(=O)NC(C)(C)C(=O)N[C@@H](Cc1c[nH]c2ccccc12)C(=O)N[C@@H](CC(C)C)C(=O)N[C@@H](CCC(=O)O)C(=O)N[C@@H](CC(=O)O)C(=O)N[C@@H](CCC(=O)O)C(=O)N1CCC[C@H]1C(=O)N[C@@H](CO)C(=O)N[C@@H](CO)C(=O)NCC(=O)N[C@@H](C)C(=O)N1CCC[C@H]1C(=O)N1CCC[C@H]1C(=O)N1CCC[C@H]1C(=O)N[C@@H](CO)C(=O)O)C(C)C
- hGLP1 pEC50 (cAMP) [1]: < 9 pEC50
- hGCGR pEC50 (cAMP) [2]: 10.2 pEC50

Binder: YSHGTFTSDYSKWLDSARAQEFVKWLEDEPSSGAPPPS-OH [Compound A38]
- hGLP1 pEC50 (cAMP) [1]: < 9 pEC50
- hGCGR pEC50 (cAMP) [2]: 13.7 pEC50

B4: Compound A47 (peptide)
peptide: YSHGTFTSDYSKYLD[Aib]KRAQEFV[Aib]WLEDEKRNKNPPS-OH
modifications: N-terminus assumed
SMILES: CC(C)C[C@H](NC(=O)[C@H](Cc1ccc(O)cc1)NC(=O)[C@H](CCCCN)NC(=O)[C@H](CO)NC(=O)[C@H](Cc1ccc(O)cc1)NC(=O)[C@H](CC(=O)O)NC(=O)[C@H](CO)NC(=O)[C@@H](NC(=O)[C@H](Cc1ccccc1)NC(=O)[C@@H](NC(=O)CNC(=O)[C@H](Cc1c[nH]cn1)NC(=O)[C@H](CO)NC(=O)[C@@H](N)Cc1ccc(O)cc1)[C@@H](C)O)[C@@H](C)O)C(=O)N[C@@H](CC(=O)O)C(=O)NC(C)(C)C(=O)N[C@@H](CCCCN)C(=O)N[C@@H](CCCNC(=N)N)C(=O)N[C@@H](C)C(=O)N[C@@H](CCC(N)=O)C(=O)N[C@@H](CCC(=O)O)C(=O)N[C@@H](Cc1ccccc1)C(=O)N[C@H](C(=O)NC(C)(C)C(=O)N[C@@H](Cc1c[nH]c2ccccc12)C(=O)N[C@@H](CC(C)C)C(=O)N[C@@H](CCC(=O)O)C(=O)N[C@@H](CC(=O)O)C(=O)N[C@@H](CCC(=O)O)C(=O)N[C@@H](CCCCN)C(=O)N[C@@H](CCCNC(=N)N)C(=O)N[C@@H](CC(N)=O)C(=O)N[C@@H](CCCCN)C(=O)N[C@@H](CC(N)=O)C(=O)N1CCC[C@H]1C(=O)N1CCC[C@H]1C(=O)N[C@@H](CO)C(=O)O)C(C)C
- hGLP1 pEC50 (cAMP) [1]: < 9 pEC50
- hGCGR pEC50 (cAMP) [2]: 11.5 pEC50

Binder: YSHGTFTSDHSKWLDSARAQEFVKWLEDEPSSGAPPPS-OH [Compound A40]
- hGLP1 pEC50 (cAMP) [1]: < 9 pEC50
- hGCGR pEC50 (cAMP) [2]: 10.1 pEC50

B5: Compound A45 (peptide)
peptide: YSHGTFTSDYSKYLD[Aib]KRAQEFV[Aib]WLEDEKRNKPPPA-OH
modifications: N-terminus assumed
SMILES: CC(C)C[C@H](NC(=O)[C@H](Cc1ccc(O)cc1)NC(=O)[C@H](CCCCN)NC(=O)[C@H](CO)NC(=O)[C@H](Cc1ccc(O)cc1)NC(=O)[C@H](CC(=O)O)NC(=O)[C@H](CO)NC(=O)[C@@H](NC(=O)[C@H](Cc1ccccc1)NC(=O)[C@@H](NC(=O)CNC(=O)[C@H](Cc1c[nH]cn1)NC(=O)[C@H](CO)NC(=O)[C@@H](N)Cc1ccc(O)cc1)[C@@H](C)O)[C@@H](C)O)C(=O)N[C@@H](CC(=O)O)C(=O)NC(C)(C)C(=O)N[C@@H](CCCCN)C(=O)N[C@@H](CCCNC(=N)N)C(=O)N[C@@H](C)C(=O)N[C@@H](CCC(N)=O)C(=O)N[C@@H](CCC(=O)O)C(=O)N[C@@H](Cc1ccccc1)C(=O)N[C@H](C(=O)NC(C)(C)C(=O)N[C@@H](Cc1c[nH]c2ccccc12)C(=O)N[C@@H](CC(C)C)C(=O)N[C@@H](CCC(=O)O)C(=O)N[C@@H](CC(=O)O)C(=O)N[C@@H](CCC(=O)O)C(=O)N[C@@H](CCCCN)C(=O)N[C@@H](CCCNC(=N)N)C(=O)N[C@@H](CC(N)=O)C(=O)N[C@@H](CCCCN)C(=O)N1CCC[C@H]1C(=O)N1CCC[C@H]1C(=O)N1CCC[C@H]1C(=O)N[C@@H](C)C(=O)O)C(C)C
- hGLP1 pEC50 (cAMP) [1]: < 9 pEC50
- hGCGR pEC50 (cAMP) [2]: 11.7 pEC50

Binder: YSHGTFTSDYSKYLDQARAQEFVKWLEDEPSSGAPPPS-OH [Compound A44]
- hGLP1 pEC50 (cAMP) [1]: < 9 pEC50
- hGCGR pEC50 (cAMP) [2]: 11.9 pEC50

B6: Compound A48 (peptide)
peptide: YSHGTFTSDYSKYLD[Aib]KRAQEFV[Aib]WLEDEKRNKNPPPS-OH
modifications: N-terminus assumed
SMILES: CC(C)C[C@H](NC(=O)[C@H](Cc1ccc(O)cc1)NC(=O)[C@H](CCCCN)NC(=O)[C@H](CO)NC(=O)[C@H](Cc1ccc(O)cc1)NC(=O)[C@H](CC(=O)O)NC(=O)[C@H](CO)NC(=O)[C@@H](NC(=O)[C@H](Cc1ccccc1)NC(=O)[C@@H](NC(=O)CNC(=O)[C@H](Cc1c[nH]cn1)NC(=O)[C@H](CO)NC(=O)[C@@H](N)Cc1ccc(O)cc1)[C@@H](C)O)[C@@H](C)O)C(=O)N[C@@H](CC(=O)O)C(=O)NC(C)(C)C(=O)N[C@@H](CCCCN)C(=O)N[C@@H](CCCNC(=N)N)C(=O)N[C@@H](C)C(=O)N[C@@H](CCC(N)=O)C(=O)N[C@@H](CCC(=O)O)C(=O)N[C@@H](Cc1ccccc1)C(=O)N[C@H](C(=O)NC(C)(C)C(=O)N[C@@H](Cc1c[nH]c2ccccc12)C(=O)N[C@@H](CC(C)C)C(=O)N[C@@H](CCC(=O)O)C(=O)N[C@@H](CC(=O)O)C(=O)N[C@@H](CCC(=O)O)C(=O)N[C@@H](CCCCN)C(=O)N[C@@H](CCCNC(=N)N)C(=O)N[C@@H](CC(N)=O)C(=O)N[C@@H](CCCCN)C(=O)N[C@@H](CC(N)=O)C(=O)N1CCC[C@H]1C(=O)N1CCC[C@H]1C(=O)N1CCC[C@H]1C(=O)N[C@@H](CO)C(=O)O)C(C)C
- hGLP1 pEC50 (cAMP) [1]: < 9 pEC50
- hGCGR pEC50 (cAMP) [2]: 12.9 pEC50
